# Measurements published in article PMC10313831, “ssDNA accessibility of Rad51 is regulated by orchestrating multiple RPA dynamics”.
# What was measured:
# RPA (Rfa1-Rfa2-Rfa3) [1] = target: T1, RPA (Rfa1-Rfa2-Rfa3) (Saccharomyces cerevisiae, UniProt P22336;P26754;P26755 1-621;1-273;1-122); assay: EMSA; 150 mM KCl; second RPA at 20 nM, third at 200 nM; EMSA: 20 mM Tris-HCl pH 7.5, 150 (or 15) mM KCl, 1 mM DTT, 100 ug/mL BSA, 5 nM DNA, 30 C 10 min; curtains: 40 mM Tris-HCl pH 7.5, 150 or 15 mM NaCl, 2 mM MgCl2, 1 mM DTT, 0.2 mg/mL BSA; MST: 1x PBS-P+; details: protein: recombinant; tags: His tag (MST: His-tagged RPA, RED-tris-NTA dye); copies: 1;1;1; label: 5'-32P
# T1 sequence (P22336 whole entry, chain 1 of 3): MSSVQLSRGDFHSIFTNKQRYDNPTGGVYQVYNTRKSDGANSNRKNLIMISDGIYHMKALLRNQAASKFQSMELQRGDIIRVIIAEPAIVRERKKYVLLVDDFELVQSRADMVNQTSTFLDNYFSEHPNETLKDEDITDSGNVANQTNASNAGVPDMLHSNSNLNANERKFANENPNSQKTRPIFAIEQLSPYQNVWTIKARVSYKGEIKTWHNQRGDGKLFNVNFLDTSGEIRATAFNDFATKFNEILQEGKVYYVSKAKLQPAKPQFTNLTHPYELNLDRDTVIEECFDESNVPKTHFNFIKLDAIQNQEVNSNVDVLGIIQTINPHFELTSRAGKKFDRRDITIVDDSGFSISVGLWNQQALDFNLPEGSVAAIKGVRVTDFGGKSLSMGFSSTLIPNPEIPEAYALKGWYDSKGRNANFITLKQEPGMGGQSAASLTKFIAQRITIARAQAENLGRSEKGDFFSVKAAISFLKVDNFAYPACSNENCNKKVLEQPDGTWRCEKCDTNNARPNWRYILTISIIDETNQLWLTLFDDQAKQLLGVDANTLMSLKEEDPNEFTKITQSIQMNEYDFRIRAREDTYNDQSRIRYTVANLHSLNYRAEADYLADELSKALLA
# T1 sequence (P26754 whole entry, chain 2 of 3): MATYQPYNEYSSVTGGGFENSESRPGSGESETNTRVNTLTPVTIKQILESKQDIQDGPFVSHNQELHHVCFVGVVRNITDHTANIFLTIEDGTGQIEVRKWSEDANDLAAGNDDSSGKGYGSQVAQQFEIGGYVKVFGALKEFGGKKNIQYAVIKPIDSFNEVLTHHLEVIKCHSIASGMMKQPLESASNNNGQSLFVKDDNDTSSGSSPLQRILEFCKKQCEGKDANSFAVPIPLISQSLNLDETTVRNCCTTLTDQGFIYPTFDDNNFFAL
# T1 sequence (P26755 whole entry, chain 3 of 3): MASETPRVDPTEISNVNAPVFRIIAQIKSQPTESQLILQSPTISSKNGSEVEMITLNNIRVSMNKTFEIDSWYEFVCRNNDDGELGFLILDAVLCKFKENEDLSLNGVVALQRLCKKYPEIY
# RPA (Rfa1-Rfa2-Rfa3) [2] = target: T1, RPA (Rfa1-Rfa2-Rfa3); assay: EMSA; minimal length for stable third RPA; EMSA: 20 mM Tris-HCl pH 7.5, 150 (or 15) mM KCl, 1 mM DTT, 100 ug/mL BSA, 5 nM DNA, 30 C 10 min; curtains: 40 mM Tris-HCl pH 7.5, 150 or 15 mM NaCl, 2 mM MgCl2, 1 mM DTT, 0.2 mg/mL BSA; MST: 1x PBS-P+; details: protein: recombinant; tags: His tag (MST: His-tagged RPA, RED-tris-NTA dye); copies: 1;1;1; label: 5'-32P
# RPA (Rfa1-Rfa2-Rfa3) [3] = target: T1, RPA (Rfa1-Rfa2-Rfa3); assay: EMSA; 150 mM KCl; single shifted species, affinity similar to dT30; EMSA: 20 mM Tris-HCl pH 7.5, 150 (or 15) mM KCl, 1 mM DTT, 100 ug/mL BSA, 5 nM DNA, 30 C 10 min; curtains: 40 mM Tris-HCl pH 7.5, 150 or 15 mM NaCl, 2 mM MgCl2, 1 mM DTT, 0.2 mg/mL BSA; MST: 1x PBS-P+; details: protein: recombinant; tags: His tag (MST: His-tagged RPA, RED-tris-NTA dye); copies: 1;1;1; label: 5'-32P
# RPA (Rfa1-Rfa2-Rfa3) [4] = target: T1, RPA (Rfa1-Rfa2-Rfa3); assay: EMSA; 150 mM KCl; second RPA binds at 50-100 nM; EMSA: 20 mM Tris-HCl pH 7.5, 150 (or 15) mM KCl, 1 mM DTT, 100 ug/mL BSA, 5 nM DNA, 30 C 10 min; curtains: 40 mM Tris-HCl pH 7.5, 150 or 15 mM NaCl, 2 mM MgCl2, 1 mM DTT, 0.2 mg/mL BSA; MST: 1x PBS-P+; details: protein: recombinant; tags: His tag (MST: His-tagged RPA, RED-tris-NTA dye); copies: 1;1;1; label: 5'-32P
# RPA (Rfa1-Rfa2-Rfa3) [5] = target: T1, RPA (Rfa1-Rfa2-Rfa3); assay: EMSA; 150 mM KCl; 2-stage binding; EMSA: 20 mM Tris-HCl pH 7.5, 150 (or 15) mM KCl, 1 mM DTT, 100 ug/mL BSA, 5 nM DNA, 30 C 10 min; curtains: 40 mM Tris-HCl pH 7.5, 150 or 15 mM NaCl, 2 mM MgCl2, 1 mM DTT, 0.2 mg/mL BSA; MST: 1x PBS-P+; details: protein: recombinant; tags: His tag (MST: His-tagged RPA, RED-tris-NTA dye); copies: 1;1;1; label: 5'-32P
# RPA (Rfa1-Rfa2-Rfa3) [6] = target: T1, RPA (Rfa1-Rfa2-Rfa3); assay: EMSA; minimal length for stable first RPA; EMSA: 20 mM Tris-HCl pH 7.5, 150 (or 15) mM KCl, 1 mM DTT, 100 ug/mL BSA, 5 nM DNA, 30 C 10 min; curtains: 40 mM Tris-HCl pH 7.5, 150 or 15 mM NaCl, 2 mM MgCl2, 1 mM DTT, 0.2 mg/mL BSA; MST: 1x PBS-P+; details: protein: recombinant; tags: His tag (MST: His-tagged RPA, RED-tris-NTA dye); copies: 1;1;1; label: 5'-32P
# RPA (Rfa1-Rfa2-Rfa3) [7] = target: T1, RPA (Rfa1-Rfa2-Rfa3); assay: EMSA; 150 mM KCl; single shifted species; EMSA: 20 mM Tris-HCl pH 7.5, 150 (or 15) mM KCl, 1 mM DTT, 100 ug/mL BSA, 5 nM DNA, 30 C 10 min; curtains: 40 mM Tris-HCl pH 7.5, 150 or 15 mM NaCl, 2 mM MgCl2, 1 mM DTT, 0.2 mg/mL BSA; MST: 1x PBS-P+; details: protein: recombinant; tags: His tag (MST: His-tagged RPA, RED-tris-NTA dye); copies: 1;1;1; label: 5'-32P (EMSA); unlabeled (MST)
# RPA-MeGFP = RPA-MeGFP (Saccharomyces cerevisiae, UniProt P22336;P26754;P26755 1-621;1-273;1-122); assay: MST; similar to RPA; EC50 only in figure; PBS-P+; EMSA: 20 mM Tris-HCl pH 7.5, 150 (or 15) mM KCl, 1 mM DTT, 100 ug/mL BSA, 5 nM DNA, 30 C 10 min; curtains: 40 mM Tris-HCl pH 7.5, 150 or 15 mM NaCl, 2 mM MgCl2, 1 mM DTT, 0.2 mg/mL BSA; MST: 1x PBS-P+; details: protein: recombinant; tags: MeGFP (eGFP A206K)-6xHis at Rfa2 C-terminus, LG linker; copies: 1;1;1; label: 5'-32P (EMSA); unlabeled (MST)
# RPA-MeGFP, sequence (P22336 whole entry, chain 1 of 3): as the sequence (P22336 whole entry, chain 1 of 3) above
# RPA-MeGFP, sequence (P26754 whole entry, chain 2 of 3): as the sequence (P26754 whole entry, chain 2 of 3) above
# RPA-MeGFP, sequence (P26755 whole entry, chain 3 of 3): as the sequence (P26755 whole entry, chain 3 of 3) above
binder,measurement,setting,value
dT(60) (ssDNA) DNA: TTTTTTTTTTTTTTTTTTTTTTTTTTTTTTTTTTTTTTTTTTTTTTTTTTTTTTTTTTTT,binding result,RPA (Rfa1-Rfa2-Rfa3) [1],binds
dT(54) (ssDNA) DNA: TTTTTTTTTTTTTTTTTTTTTTTTTTTTTTTTTTTTTTTTTTTTTTTTTTTTTT,binding result,RPA (Rfa1-Rfa2-Rfa3) [2],binds
TTTTTTTTTTTTTTTTTTTT (ssDNA) [dT(20)],binding result,RPA (Rfa1-Rfa2-Rfa3) [3],binds
TTTTTTTTTTTTTTTTTTTTTTTTTTTTTTTTTTTTTTTT (ssDNA) [dT(40)],binding result,RPA (Rfa1-Rfa2-Rfa3) [4],binds
TTTTTTTTTTTTTTTTTTTTTTTTTTTTTTTTTTTTTTTTTTTTTTTTTT (ssDNA) [dT(50)],binding result,RPA (Rfa1-Rfa2-Rfa3) [5],binds
TTTTTTTTTTTTTTT (ssDNA) [dT(15)],binding result,RPA (Rfa1-Rfa2-Rfa3) [6],binds
TTTTTTTTTTTTTTTTTTTTTTTTTTTTTT (ssDNA) [dT(30)],binding result,RPA (Rfa1-Rfa2-Rfa3) [7],binds
same,binding result,RPA-MeGFP,binds
